From patent publication US20260056186A1 (JIANGSU HENGRUI PHARMACEUTICALS, published 2026) come the findings set out here.

For test [1], the target named is T1, IFNAR1 (human, UniProt P17181 28-557).
T1 sequence (looked up): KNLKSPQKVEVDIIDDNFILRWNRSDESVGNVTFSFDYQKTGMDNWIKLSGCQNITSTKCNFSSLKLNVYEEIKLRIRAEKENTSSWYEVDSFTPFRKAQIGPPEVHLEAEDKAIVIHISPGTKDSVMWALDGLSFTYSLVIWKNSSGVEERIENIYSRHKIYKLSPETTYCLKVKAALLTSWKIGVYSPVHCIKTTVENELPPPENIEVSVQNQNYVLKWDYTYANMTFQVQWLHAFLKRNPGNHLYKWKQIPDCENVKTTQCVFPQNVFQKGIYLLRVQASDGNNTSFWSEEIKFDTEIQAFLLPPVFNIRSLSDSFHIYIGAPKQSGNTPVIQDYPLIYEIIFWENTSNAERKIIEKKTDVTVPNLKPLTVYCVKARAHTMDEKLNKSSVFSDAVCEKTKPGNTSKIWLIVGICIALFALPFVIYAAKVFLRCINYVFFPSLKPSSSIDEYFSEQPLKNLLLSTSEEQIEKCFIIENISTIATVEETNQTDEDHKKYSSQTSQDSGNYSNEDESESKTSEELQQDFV
As to the kind of experiment: cell-based or functional assay.

Test [2] concerns the target T1, IFNAR1. As to the kind of experiment: cell-based or functional assay. This is another data set of the same source.
Test [3] addresses recombinant human BAFF (R&D cat: 7537-BF-025/CF) (human, UniProt Q9Y275 134-285). The test is described as follows: cell-based or functional assay.
Test [4] has as its target T2, recombinant human APRIL (R&D cat: 5860-AP-010/CF) (human, UniProt O75888 105-250, limits assumed).
T2 sequence (looked up): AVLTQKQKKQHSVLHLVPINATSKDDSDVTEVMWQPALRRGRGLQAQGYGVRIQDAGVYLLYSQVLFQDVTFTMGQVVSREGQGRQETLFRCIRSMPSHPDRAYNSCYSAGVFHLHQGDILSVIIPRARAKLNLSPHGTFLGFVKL
As to the kind of experiment: cell-based or functional assay.

In test [5] the target is T3, APRIL (Acro Biosystems, Cat: APL-H52D1) (UniProt O75888 115-250, limits assumed).
T3 construct: also called ARPIL
T3 sequence (looked up): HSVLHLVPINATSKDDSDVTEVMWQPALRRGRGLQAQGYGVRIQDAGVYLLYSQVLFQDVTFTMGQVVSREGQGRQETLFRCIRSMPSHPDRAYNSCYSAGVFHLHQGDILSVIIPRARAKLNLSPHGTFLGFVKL
The test is described as follows: ELISA, APRIL coated; reference telitacicept. For orientation: An ELISA detects its analyte on a solid surface through an enzyme-linked reagent.

The target of test [6] is T3, APRIL (Acro Biosystems, Cat: APL-H52D1). The test is described as follows: ELISA, APRIL coated at 1 ug/mL, anti-human Fc-HRP, OD450. The protocol: The capabilities of fusion proteins B606401, B637302, B746201, and B805201 to bind to BAFF and APRIL were assessed by ELISA as follows:
BAFF (PeproTech, Cat: 310-13) or ARPIL (Acro Biosystems, Cat: APL-H52D1) was diluted to 1 μg/mL with PBS, and a 96-well plate was coated with the dilution overnight at 4° C. The plate was washed with PBST and blocked with Blocking Buffer (PBST containing 1% BSA) at 37° C. for 1 h. The plate was tapped. The test antibodies were diluted with Blocking Buffer. Incubation was performed at 37° C. for 1.5 h. The plate was washed with PBST. An HRP-mouse anti-human Fc antibody (GenScript, Cat: A01854-200) was diluted with Blocking Buffer. Incubation was performed at 37° C. for 40 min. The plate was washed with PBST. 100 μL of TMB substrate solution (Biopanda, Cat: TMB-S-003) was added, and color development was performed at 37° C. for 3 min. 100 μL of ELISA stop solution (Solarbio, Cat: C1058) was added. OD450 was measured.

In test [7] the target is T4, BAFF (Sino biological, 10056-HNCH) (UniProt Q9Y275 134-285, biotinylated in the blocking ELISA (site not stated)).
T4 construct: also called BLyS
As to the kind of experiment: ELISA, BAFF coated at 1 ug/mL, anti-human IgG-HRP. The protocol: (§1) In addition, the BAFF binding activity of the constructed TACI-Fc fusion proteins was assessed, and the TACI-Fc fusion proteins' functional activity of blocking the binding of BAFF to BAFF-R was assessed (see Example 1 for the experimental method).
(§2) The BAFF binding activity of the TACI-Fc fusion proteins was assessed as follows: BAFF (Sino biological, 10056-HNCH) protein was diluted with a pH 7.4 PBS (BasalMedia, B320) buffer to 1 μg/mL, and the resulting dilution was added to a 96-well microplate (Corning, 3590) at 100 μL/well. The plate was incubated overnight at 4° C. After the liquid was discarded, 5% skim milk (BD, 232100), diluted with PBS, was added at 300 μL/well for blocking, and the plate was incubated at 37° C. for 2 h. After the blocking, the blocking solution was discarded, and the plate was washed 3 times with a PBST buffer (pH 7.4 PBS containing 0.10% tween-20). Serially diluted test antibody or fusion protein solutions were added at 100 μL/well, and the plate was incubated at 37° C. for 1 h. […] The plate was incubated at 37° C. for 1 h. After the plate was washed 3 times with PBST, the chromogenic substrate TMB (KPL, 5120-0077) was added at 100 μL/well. The plate was incubated at room temperature for 10-15 min, and 1 M H₂SO₄ was added at 50 μL/well to stop the reaction. The absorbance at 450 nm was measured using a microplate reader. Curves for the binding of the antibodies to the antigen were fitted using software, and EC₅₀ values were calculated.

The target in test [8] is T4, BAFF (Sino biological, 10056-HNCH). The test is described as follows: ELISA, BAFF coated at 1 ug/mL, anti-human IgG-HRP. The protocol: as §2
The BAFF binding activity of the constructed TACI-Fc fusion proteins was assessed (see Example 2 for the experimental method), and the results are shown in Table 3: […]
The source holds these as a separate data set.

For test [9] the target is unchanged. As to the kind of experiment: competition ELISA: fusion protein pre-mixed with biotinylated BAFF, added to coated BAFF-R. The protocol: The above TACI-Fc fusion proteins' function of blocking the binding of BAFF to BAFF-R was further assessed as follows: The receptor protein was diluted with a pH 7.4 PBS (BasalMedia, B320) buffer to 2 μg/mL, and the resulting dilution was added to a 96-well microplate (Corning, 3590) at 100 μL/well. The plate was incubated overnight at 4° C. After the liquid was discarded, 1% Casein blocking solution (Thermo, 37528) was added at 200 μL/well for blocking, and the plate was incubated at 37° C. for 2 h. After the blocking, the blocking solution was discarded, and the plate was washed 3 times with a PBST buffer (pH 7.4 PBS containing 0.1% tween-20) and set aside for later use. A biotinylated ligand protein at a fixed concentration was mixed with a serially diluted antibody or fusion protein, and the mixture was pre-incubated at 37° C. for 30 min and then added to the blocked microplate. The plate was incubated at 37° C. for 1.5 h. After the incubation, the plate was washed 3 times with PBST, and streptavidin-HRP (Invitrogen, 434323, diluted in a 1:4000 ratio) was added at 100 μL/well. The plate was incubated at 37° C. for 1 h. The supernatant was removed. […] The absorbance at 450 nm was measured using a microplate reader. Curves for the inhibition of the binding of the ligand to the receptor were fitted using software, and IC₅₀ values were calculated. […]

The target is the same in test [10]. Described as above. The protocol:
The above TACI-Fc fusion proteins' function of blocking the binding of BAFF to BAFF-R was further assessed as follows: The receptor protein was diluted with a pH 7.4 PBS (BasalMedia, B320) buffer to 2 μg/mL, and the resulting dilution was added to a 96-well microplate (Corning, 3590) at 100 μL/well. The plate was incubated overnight at 4° C. After the liquid was discarded, 1% Casein blocking solution (Thermo, 37528) was added at 200 μL/well for blocking, and the plate was incubated at 37° C. for 2 h. After the blocking, the blocking solution was discarded, and the plate was washed 3 times with a PBST buffer (pH 7.4 PBS containing 0.1% tween-20) and set aside for later use. A biotinylated ligand protein at a fixed concentration was mixed with a serially diluted antibody or fusion protein, and the mixture was pre-incubated at 37° C. for 30 min and then added to the blocked microplate. The plate was incubated at 37° C. for 1.5 h. After the incubation, the plate was washed 3 times with PBST, and streptavidin-HRP (Invitrogen, 434323, diluted in a 1:4000 ratio) was added at 100 μL/well. The plate was incubated at 37° C. for 1 h. The supernatant was removed. After the plate was washed 3 times with PBST, the chromogenic substrate TMB (KPL, 5120-0077) was added at 100 μL/well. The plate was incubated at room temperature for 10-15 min, and 1 M H₂SO₄ was added at 50 μL/well to stop the reaction. The absorbance at 450 nm was measured using a microplate reader. Curves for the inhibition of the binding of the ligand to the receptor were fitted using software, and IC₅₀ values were calculated. The sources of the ligand and the receptor protein used are as follows: BAFF (Sino biological, 10056-HNCH) and BAFF-R (Sino biological, 16079-H02H).
as §1
This is another data set of the same source.

Where two headings read alike, the source gives them in different places.

T4 sequence (Q9Y275 134-285 limits assumed): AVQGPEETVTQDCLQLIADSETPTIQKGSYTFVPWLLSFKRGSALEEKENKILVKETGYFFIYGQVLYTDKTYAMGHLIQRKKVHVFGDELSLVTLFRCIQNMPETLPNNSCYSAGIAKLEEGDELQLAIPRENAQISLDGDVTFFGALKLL
Chain of recombinant human BAFF (R&D cat: 7537-BF-025/CF) (Q9Y275 134-285 limits assumed): as above

B1: B746201 (other)
heavy: EVQLVQSGAEVKKPGESLKISCKGSGYIFTNYWIAWVRQMPGKGLESMGIIYPGDSDIRYSPSFQGQVTISADKSITTAYLQWSSLKASDTAMYYCARHDIEGFDYWGRGTLVTVSSASTKGPSVFPLAPSSKSTSGGTAALGCLVKDYFPEPVTVSWNSGALTSGVHTFPAVLQSSGLYSLSSVVTVPSSSLGTQTYICNVNHKPSNTKVDKRVEPKSCDKTHTCPPCPAPEFEGGPSVFLFPPKPKDTLMISRTPEVTCVVVDVSHEDPEVKFNWYVDGVEVHNAKTKPREEQYNSTYRVVSVLTVLHQDWLNGKEYKCKVSNKALPASIEKTISKAKGQPREPQVYTLPPSRDELTKNQVSLTCLVKGFYPSDIAVEWESNGQPENNYKTTPPVLDSDGSFFLYSKLTVDKSRWQQGNVFSCSVMHEALHNHYTQKSLSLSPGKGGGGSGGGGSGGGGSMLQMAGQCSQNEYFDSLLHACIPCQLRCSSNTPPLTCQRYCSTSCREEQGEFYDHLLRDCISCASICGQHPKQCAAFCE
light: EIVLTQSPGTLSLSPGERATLSCRASQSVSSSFFAWYQQKPGQAPRLLIYGASSRATGIPDRLSGSGSGTDFTLTITRLEPEDFAVYYCQQYDSSAITFGQGTRLEIKRTVAAPSVFIFPPSDEQLKSGTASVVCLLNNFYPREAKVQWKVDNALQSGNSQESVTEQDSKDSTYSLSSTLTLSKADYEKHKVYACEVTHQGLSSPVTKSFNRGEC
notes: Fusion protein of anifrolumab, TACI-19-16 and BCMA-ECD-2 (C-terminus of the heavy chain)
As usually defined, the EC50 is the concentration giving half of the maximal effect. A higher EC50 goes with a less potent agent. For the molecule B1, the “IC50, inhibition of IFN-alpha-induced in vitro differentiation of B cells into plasma cells (CD27+ CD38+)” value in the test with IFNAR1 [1] amounted to 1.9 nM. Besides, the “IC50 (nM), inhibition of the activity of type I interferons (IFN-beta, HEK-Blue IFN-alpha/beta reporter cells)” value with IFNAR1 [2] came out at 1.64 nM. For the same molecule, in test [3], the “CD27+ CD38+ plasma cell count, mean value, BAFF + APRIL-induced (both ligands together), drug at 100 nM (IgG1: 2496)” value turned out to be 520 cells and the “CD27+ CD38+ plasma cell count, mean value, BAFF + APRIL-induced (both ligands together), drug at 1000 nM (IgG1: 2279)” value was found to be 410 cells. Besides, in test [4], the “CD27+ CD38+ plasma cell count, mean value, BAFF + APRIL-induced (both ligands together), drug at 10 nM (IgG1: 2687)” value turned out to be 575 cells; the “CD27+ CD38+ plasma cell count, mean value, BAFF + APRIL-induced (both ligands together), drug at 100 nM (IgG1: 2496)” value was determined as 520 cells; the “CD27+ CD38+ plasma cell count, mean value, BAFF + APRIL-induced (both ligands together), drug at 1000 nM (IgG1: 2279)” value is 410 cells. Besides, the “EC50 relative to telitacicept” value in test [5] was 0.333 fold. In test [6], this molecule came in with a concentration for a half-maximal effect (EC50) of 0.179 nM and an Emax of 2.8.

B2: TACI-9-Fc (Fc fusion)
chain: SLSCRKEQGKFYDHLLRDCISCASICGQHPKQCAYFCENKLDKTHTCPPCPAPEAEGAPSVFLFPPKPKDTLMISRTPEVTCVVVDVSHEDPEVKFNWYVDGVEVHNAKTKPREEQYNSTYRVVSVLTVLHQDWLNGKEYKCKVSNKALPSSIEKTISKAKGQPREPQVYTLPPSRDELTKNQVSLTCLVKGFYPSDIAVEWESNGQPENNYKTTPPVLDSDGSFFLYSKLTVDKSRWQQGNVFSCSVMHEALHNHYTQKSLSLSPGK
notes: C-terminus of TACI-9 fused directly to the N-terminus of human IgG1 Fc; two identical polypeptide chains; expressed in 293E
A word on the IC50: it is the concentration that gives 50% inhibition. Consider B2, for which the results for the EC50 in [7] and in [8] were 0.49 nM and 0.418 nM, respectively. Moreover, the figures for the IC50 in test [9] and in test [10] were 5.02 nM and 2.09 nM, respectively.
